The values below come from publication PMC5087277 (ACS chemical biology, 2016).

The target in data set [1] is ClpXP (sc6ClpXΔN-bio with ClpP; ATP site on ClpX) (Escherichia coli, UniProt P0A6H1, C169S/K408E). Put plainly: bio-layer interferometry, ClpP association to immobilised ClpX. The data set is classed as binding. A general note: BLI is a label-free optical method that tracks binding on a fibre tip over time.
Data set [2] concerns Nc1ncnc2c1ncn2[C@@H]1O[C@H](COP(=O)(O)OP(=O)(O)OP(=O)(O)O)[C@@H](O)[C@H]1O. The data set can be described thus: coupled ATP hydrolysis assay. The data set is classed as biochemical, Escherichia coli. Conditions: pH 7.5.
In data set [3] the test system is ^sc6ClpX^ΔN-bio single-chain ClpX^ΔN pseudohexamer. The data set can be described thus: BLI.
Data set [4] has as its target ^sc6ClpX^ΔN-bio single-chain ClpX^ΔN pseudohexamer (E. coli). The data set can be described thus: BLI.
[5] abbreviates: excess ClpP (1 μM), Hill n = 2.2, 10 mM MgCl2, 30 °C.
Where [6] appears, read: no ClpP, Hill n = 2.4, 10 mM MgCl2, 30 °C.

As to `Nc1ncnc2c1ncn2[C@@H]1O[C@H](COP(=O)(O)OP(=O)(O)OP(=O)(O)O)[C@@H](O)[C@H]1O` [ATP], the 50% effective concentration (EC50) (commonly the concentration that produces a half-maximal response) in data set [1] amounted to 100 ± 2 µM.
Consider “ClpXP (sc6ClpXΔN-bio with ClpP; ATP site on ClpX) (Escherichia coli K-12; C169S/K408E)”, for which, in data set [2] (setting [5]), the K0.5 amounted to 29 µM and the kcat stood at 41 min^−1 enz^−1.
In the case of E. coli ClpP (C91V, C113A), in data set [3], the “kobs of association at 200 nM ClpP, maximal fitted value against ATP” value came out at 0.138 ± 0.001 s^−1 for kobs; the “maximal rate of kobs-1 (double-exponential association, amplitude ~70%)” value was “the maximal rate was 22 ± 7 s^−1”; the “maximal rate of kobs-2 (double-exponential association, amplitude ~30%)” value is given as “the maximal rate was 0.54 ± 0.2 s^−1”.
Consider E. coli ClpP (C91V, C113A) (enzyme), for which, in data set [4], the Kd (in general, the equilibrium constant for the complex coming apart) is < 0.0001 µM; the dissociation rate constant in the absence of nucleotide or presence of ADP is < 0.07 s⁻¹; the fold more kinetically stable in 7:1 ADP:ATP against ADP alone was determined as 100 fold; the half-life of ADEP-2B-induced dissociation worked out at 1 s. In data set [4], this compound yielded a half-life of dissociation in ADP (complex formed with ATP) of 5 s; a half-life of dissociation in ADP (complex formed with ATPγS) of 20 s; a half-maximal binding, total ClpP concentration of 160 pM; a maximum dissociation rate constant with ADEP-2B (hyperbolic fit) of 2 s⁻¹.
On to “sc6ClpXΔN-bio (Escherichia coli K-12; C169S/K408E)”, for which, in data set [2] (setting [6]), the K0.5 was 42 ± 3 µM and the kcat was 73 min^−1 enz^−1.
